# Measured values taken from the RNAGym collection of RNA variant scans (doi:10.1073/pnas.2313332121).
# B1: TPR t1 (parent)
# chain: GACCAAUCUGCCCUCAGAGCUCGAGAACAUCUUCGGAUGCAGAGGAGGCAGGCUUCGGUGGCGCGAUAGCGCCAACGUCCUCAACCUCCAAUGCAUCCCACCACAUGAUGAUGCCUGAAGAGCCUUGGUUUUUUG
# Variants of: B1
# Experiment: polymerase ribozyme fitness, log enrichment relative to wild type (log ratio); higher = more active; in vitro selection for triplet polymerase activity
# In short: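 The heterodimeric triplet polymerase ribozyme's subunits were each mutagenized into PCR-built libraries and transcribed. Every library was selected once, in triplicate, by annealing with a biotinylated primer, the partner subunit and triplets, incubating frozen at −7 °C, gel-excising extended constructs, capturing on streptavidin beads and running RT-PCR. Input and output libraries were Illumina-sequenced, with genotypes kept only at ≥10 input reads and ≥1 read per output. Fitness, from inverse-variance-weighted replicate averages, is the base-2 logarithm of genotype enrichment over wild-type enrichment.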
row,Variant,polymerase ribozyme fitness (log ratio)
1,GACCAAUCUGCCCUAAGAGCUCGAGAACAUCUUCGGAUGCAGAGGAGGCAGGCUUCGGUGGCGCGAUAGCGCCAACGUCCUCAACCUCCAAUGCAUCCCACCACAUGAUGAUGCCUGGAGAGCCUUGGUUUUUUG [C15A A118G],-2.6
2,GACCAAUCUGCCCUAAGAGCUCGAGAACAUCUUCGGAUGCAGAGGUGGCAGGCUUCGGUGGCGCGAUAGCGCCAAUGUCCUCAACCUCCAAUGCAUCCCAUCACAUGAUGAUGCUUGAAGAGCCUUGGUUUUUUG [C15A A46U C76U C101U C115U],-4.21
3,GACCAAUCUGCCCUAAGAGCUCGAGAACAUCUUCGGAUGCAGAGGAGGCAGGCUUCGGUGGCGCGAUAGCGCCAACGUCCUCAACCUCCAGUGCAUCCCACCACAUGAUGAUGCCUGAAGAGACUUGGUUUUUUG [C15A A91G C123A],-2.45
4,GACCAAUCUGCCCUAAGAGCUCGAGAACAUCUUCGGAUGCAGAGGAGGCAGGCUUAGGUGGCGCGAUAGCGCCAACGUCCUCAACCUCCAAUGCAUCCCACCACAUGAUGAUGCCUUAAGAGCCUUGGUUUUUUG [C15A C56A G117U],0.157
5,GACCAAUCUGCCCUAAGAGCUCGAGAAUAUCUUCGGAUGCAGAGGAGGCAGGCUUCGGUGCCGCGAUAGCGCCAACGUCCUCAACCUCCAAUGCAUCCCACCACAUGAUGAUGCCUGAAGAGCCUUGGUUUUUUG [C15A C28U G61C],-5.32
6,GACCAAUCUGCCCUAAGAGCUCGAGAACAUCUUCGGAUGCAGAGGAGGCAGGCUUCGGUGGCGCGAUAGCGCCAAAGUCCUCAACCUCCAAUGCAUCCCACCACAUGAUGAUGCCUGAAGAGCCUUGGUUUUUUG [C15A C76A],-2.53
7,GACCAAUCUGCCCUAAGAGCUCGAGAACAUCUUCGGAUGCAGAGGAGGUAGGCUUCGGUGGCGCGAUAGCGCCAACGUCCUCAACCUCCUAUGCAUCCCACCACAUGGUGAUGGCUGAAGAGCCUUGGUUUUUUG [C15A C49U A90U A108G C114G],-6.22
8,GACCAAUCUGCCCUAAGAGCUCGAGAACAUCUUCGGUUGCAGAGGAGGCAGGCUUCGGUGGCGCGAUAGCGCCAAUGUCCUCAACCUCCAAUGCAUCCCACCACAUGAUGAUGCCUGAAGAGCCUUGGUUUUUUG [C15A A37U C76U],-2.8
9,GACCAAUCUGCCCUAAGAGCUCGAGAACAUCUUCGGUUGCAGAGGAGGCAGGCUUCGGUGGCGCGAUAGCGCCAAGGUCCUCAACCUCCAAUGCAUCCCACCACAUGAUGAUGCCUGAAGAGCCUUGGUUUUUUG [C15A A37U C76G],-2.94
10,GACCAAUCUGCCCUAAGAGCUCGAGAACAUCUUCGGAUGAAGAGGAGGCAGGCUUCGGUGGCGCGAUAGAGCCAACGUCCUCAACCUCCAAUGCAUUCCACCACAUGAUGAUGCCUGAAUAGCCUUGGUUUUUUG [C15A C40A C70A C97U G120U],-5.14
11,GACCAAUCUGCCCUAAGAGCUCGAGAACAUCUUCGGAUGCUGAGGAGGCAGGCUUCGGUGGCGCGAUAGCGCCAACGUCCUCAACCUCCAAUGCAUCCCACCACAUGAUGAUGCCUGAAGAGCCUUGGAUUUUUG [C15A A41U U129A],-4.72
12,GACCAAUCUGCCCUAAGAGCUCGAGAACAUCUUCGGAUGCAGAGGAGGCAGGCUUCGGUGGCGCGAUAGCGCCAACGUCUUCAACCUCCAAUGCAUCCCACCACAUGAUGAUGCCUGAAGAGCCUUGGUUUUUUG [C15A C80U],-1.68
13,GACCAAUCUGCCCUAAGAGCUCGAGAAGAUCUUCGGAUGCAGAGGAGGCAGGCUUCGGUGGCGCGAUAGCGCCAACGUCCUCAACCUCCAAUGCAUCCCACCACAUGAUGAUGCCUGAAGAGCCUUGGUUUUUUG [C15A C28G],-4.4
14,GACCAAUCUGCCCUAAGAGCUCGAGAACAUCUUCGGAUGCAGAGGAGGCAGGCUUCGGUGGCGCGAUAGCGCCAACGUCCUCAACCUCCAAUGCAUCCCACCACAUGAUGUUGCCUGAAGAGCCUUGGUUUUUUG [C15A A111U],-5.13
15,GACCAAUCUGCCCUAAGAGCUCGAGAACAUCUUCGGUUGCAGAGGAGGCAGGCUUCAGUGCCGCGAUAGCGCCAACGUCCUCAACCUCCAAUGCAUCCCACCACAUGAUGAUGCCUGAAGAGCCUUGGUUUUUUG [C15A A37U G57A G61C],-3.97
16,GACCAAUCUGCCCUAAGAGUUCGAGAACAUCUUCGGAUGCAGAGGAGGCAGGCUUCGAUGGCGCGAUAGCGCCAACGUCCUCAACCGCCCAUGCAUCCCACCACAUGAUGAUGGCUGAAGAGCCUUGGUUUUUUG [C15A C20U G58A U87G A90C C114G],-4.17
17,GACCAAUCUGCCCUAAGAGCUCGAGAACAUCUUCGGAUGCAGGGGAGGCAGGCUUCGGUGGCGCGAUAGCGCCAACGUCCUCAACCUCCAAUGCACCCCACCACAUGAUGACGCCUGAAGAGCCUUGGUUUUUUG [C15A A43G U96C U112C],-2.05
18,GACCAAUCUGCCCUAAGAGCUCGAGAACAUCUUCGGGUGCAGAGUAGGCAGGCUUCGGUGGCGCGAUAGCGCCAACGUCCUCAACCUCCAAUUCAUCCCACCACAUGAUGACGCCUGAAGACGCAUGGUUUUUUG [C15A A37G G45U G93U U112C G122C C123G U125A],-5.64
19,GACCAAUCUGCCCUAAGAGCUCGAGAACAUCUUCGGAUGCAGAGGAGGAAGGCUGCGGUGGCGCGAUAGCGCCCACGUCCGCAACCUCCGAUGCAUCCCACCACAUGAUGAUGCCUUAAGAGCCUUGGUUUUUUG [C15A C49A U55G A74C U81G A90G G117U],-3.52
20,GACCAAUCUGCCCUAAGAGCUCGAGAACAUCUUCGGAUGCAGAGGAGGCAGGCUUCGGUGGCGCGAUAGCGCCAACGUCCUUAACCUCAAAUGCAACCCACCAUAUGAUGAUGCCUGAAGAGCCUUGGUUUUUUG [C15A C82U C89A U96A C104U],-3.39
21,GACCAAUCUGCCCUAAGAGCUCGAGAACAUCUUCGGAUGUAGAGGAGGCAGGCUUCGGUGGCGCGAUAGCGCCAACGUCCUCAACCUCCAAUGCAUCCCACCACAUGAUGAUGCCUGAACAGCCUUGGUUUUUUG [C15A C40U G120C],-0.554
